Data on seven molecules can be found in article PMC4933900, “Defined enzyme cocktail from the anaerobic fungus Orpinomyces sp. strain C1A effectively releases sugars from pretreated corn stover and switchgrass” (Scientific Reports, 2016).

For one data set, the target named is T1, EG5 (Pecoramyces ruminantium, UniProt A0A1B1JH60).
T1 construct: whole CDS (nt 1-1251 of transcript; protein length 417) cloned; codon-optimised synthetic gene in pET28a(+) NdeI/XhoI, E. coli, purified
As to the kind of experiment: endoglucanase assay, CellG3 kit, 2-chloro-4-nitrophenol release. Type of data set: biochemical. Conditions: printed BDL (below detection limit 500 nM); Lineweaver-Burk extrapolation 0.000003999 mM. An excerpt:
endoglucanase assay, CellG3 kit, 2-chloro-4-nitrophenol release on EG5

Substrate in data set [1]: O=[N+]([O-])c1ccc(O[C@@H]2O[C@H](CO)[C@@H](O[C@@H]3O[C@H](CO)[C@@H](O)[C@H](O)[C@H]3O)[C@H](O)[C@H]2O)cc1
In words: cellobiohydrolase assay, p-nitrophenol release. In kind it is biochemical, Pecoramyces ruminantium. To be noted: 0.1 M sodium acetate buffer, 15 min; pH and temperature of kinetics not stated.

Substrate in data set [2]: O=[N+]([O-])c1ccc(O[C@@H]2O[C@H](CO)[C@@H](O[C@@H]3O[C@H](CO)[C@@H](O[C@@H]4O[C@@H]5COC(c6ccccc6)O[C@H]5[C@H](O)[C@H]4O)[C@H](O)[C@H]3O)[C@H](O)[C@H]2O)c(Cl)c1
As to the kind of experiment: endoglucanase assay, CellG3 kit, 2-chloro-4-nitrophenol release. Type of data set: biochemical, Pecoramyces ruminantium. To be noted: pH and temperature of kinetics not stated. From the text: endoglucanase assay, CellG3 kit, 2-chloro-4-nitrophenol release on Cel48

Substrate in the data set “purified protein”: O=[N+]([O-])c1ccc(O[C@@H]2O[C@H](CO)[C@@H](O)[C@H](O)[C@H]2O)cc1
In words: purified protein. Conditions: 0.1 M sodium acetate buffer, 15 min; pH and temperature of kinetics not stated.

Substrate in data set [3]: O=[N+]([O-])c1ccc(O[C@@H]2OC[C@@H](O)[C@H](O)[C@H]2O)cc1
As to the kind of experiment: beta-xylosidase assay, p-nitrophenol release. Conditions: 0.1 M sodium acetate buffer, 15 min; pH and temperature of kinetics not stated. Type of data set: biochemical, Pecoramyces ruminantium.

In general, Km refers to the concentration of substrate that gives half-maximal velocity. For `O=[N+]([O-])c1ccc(O[C@@H]2O[C@H](CO)[C@@H](O[C@@H]3O[C@H](CO)[C@@H](O[C@@H]4O[C@@H]5COC(c6ccccc6)O[C@H]5[C@H](O)[C@H]4O)[C@H](O)[C@H]3O)[C@H](O)[C@H]2O)c(Cl)c1` (some centres unmarked) [CellG3], the Km on EG5 is under 0.5 µM.

B1: Cel48 (Pecoramyces ruminantium) (protein)
chain: MPSIRTALTLLGASAVIAAPTKRANDAYAQRVIDTYNAVTGNGSYRSDYFSPENVPYHSVETMMVEAPDQGHESVSETYSFWVWLEAINGKMTGNYDGVNTAWSYLEKHIIPDSKNQPGMSRYNSSSPATYAPEDDDITNYPSKLIFQDGLVGQDPIAAELQQAYGTWDIYAMHWIIDGDNWYGYGQQGDGTTKPSFINTFQRGPSESAWKTVPHPCWEEFKWGGRNGFLDLFTVDNSYAKQWRYTAAPDADARAIQAAYFAYIWAKEDGQNLSSLAGKAAKLGDYLRYAHYDKYFKKIGNCIGYQQCQAGSGKNSAHYLISWYFSWGGGLQGDWSWRIGSSHTHTGYQNPLAAWVLSTESAFKPKGSTAVKDWATSLDRQLELFRWLQAAEGCIAGGATNSWQGHYAQPPSDITSFYGMYYDWQPVYHDPPSNNWTGMQGWGMERVCSLYFLSGNEKAGKVCQDWAKWVKNNVRVNGSEVVHATNFSWSGNPDEWKPANFNKSGLNASLHGTVSTEGIDIGSLASIIKGLMWVSMKDGDQEGIDLAVQVMDAIEQYRDDHGYGVEEAREDYAKFNEEVYIPSGWTGKNAQGANIRNGVKFIDIRPKYKQDPDWPQIENFLNGGEAPRFTYHRFWAQTEIAVANGLISIYGLSDGSGVVPTKPGSCAAAIKAQGYKCCSANCEVVYTDADGDWGVENDEWCGCGGGEPECPAAITNQGYPCCSTCGTVYYTDGDGDWGVENGDWCGMPTDC
notes: whole CDS (nt 87-2342 of transcript; protein length 751) cloned; codon-optimised synthetic gene in pET28a(+) NdeI/XhoI, E. coli, purified
The term Vmax denotes the rate approached at saturating substrate. With B1, in data set [1], the Km was 8980 µM and the Vmax was 0.357 µmol/min/mg. For the same molecule, in data set [2], the Km was 30100 µM and the Vmax is 0.048 µmol/min/mg.

B2: EG5 (Pecoramyces ruminantium) (protein)
chain: TLLGLAIIGTKAMRNISSKELVKELTIGWSLGNTLDATCFETLNYAKDQTASETCWGNVKTTQELYYKLNDLGFNTFRIPTTWSGHFGDGPDYKISEAWMKRVHEIVDYALNADGYAILNIHHETWNHAFQKNLESAKKILVAIWKQIAAEFADYDEHLIFEGMNEPRKVGDAAEWNGGDYEGWNFVNEMNDLFVKTIRATGGNNALRHLMIPTYAACVNDGAINNFRFPSGDDKVIVSLHSYSPYNFALNNGAGAISNFNDGSEIDWVMNTINSSFISKGIPVIIGEFGAMNRNNEADREKWAEYYIKKATSLGIPCVIWDNGYFEGEGERFGLIDRKSLNVVYPRLVNGLMKGLGDKKPKTTKVRTTTTTTIQVQPTNNNDCFSTKLGYDCCNGCEVFYTDNDGKWGVENGNWCG
Turning to B2, in “purified protein”, the Km is 84000 µM and the maximum rate (Vmax) came out at 0.45 µmol/min/mg.

B3: BGL3 (Pecoramyces ruminantium) (protein)
chain: TWEEADAKAREWCSDLTNEEKIALITGRENMTGVCVGSIDPIERKGFKGLCLQDGPAGVRFAKGTATSWQASINTAATFDRTLLRKVGEAQGNEFYQRGINVALAPSMGIQRAPAAGRIFESYGEDPFYVGQCGLEVLKGIQSQGVIANAKHYIANDQENNRGASTSNVPEQALWEVYMEPFYRTVVEGEAGTVMASYNAINGTYSTQNKRLLTDYLKGKLGFKGFVMSDWWAIFDVEKSFGNGTDMNMPGGKYWGPDYVGDSFWGEHIQECIDNGVFPQERLDDAVLRIIRTLYKLDQMDDYPEVNLYVDTNTKENAALNRKVGADSNVLLKNADNILPIKKSKKVKKIAVIGKDSMPPTLCEDMKCANGTLPLGWGSGTTDFKYVVDPLSAITKRAKKSKISVVSYGEDDAKKAAKVAKKADVAIVFVQADSGEEYITVEGNAGDRLNLDLWHGGNELIEAVAAVNKNTIVVIHAPGPVNVPFLDKVKGIIFAGLPGQETGNAITDVLFGDVNPSGHLPYTWAPREDYPTDVKYEPEYPDGGEKMTVYDYNEGLFVGYRWFDKKEIEPTFAFGYGLSYTTFEFSDLEATMEDDGLYVSLTVTNTGKVAGAAVPMIFLSFPESVKDYPIRLFKGFDKVMLKAGESKETTIFIDAHGLSYFDVEKMEYVRPKDGEFTVYAGSNARDLPLNVKVLANGDEI
notes: about residues 22-721; pET28a(+) NdeI/XhoI, codon-optimised, E. coli, purified
As to B3, the Km came to 275 µM in “purified protein” and 50600 µM in data set [3]. For the same molecule, the Vmax in the data set “purified protein” was found to be 1.55 µmol/min/mg; in data set [3], 0.068 µmol/min/mg.

B4: BGL1 (Pecoramyces ruminantium) (protein)
chain: IVKPAADAAADVASDAEVVASDEENPLDNGEDSADDTPKGKLPSDFKWGAATAAYQVEGAWNEEGRGESVWDHFTHLYPKNVESGDRSNKDSTNGNVACDSYHKFDEDIKMMKIMNANHYRFSISWSRLFPDGQAKKVDGEWNVNEAGAQYYDMVIDTLLDNDIIPLATLYHWDLPYALHEKYGGWLDYHSQFDFAKYAEFCFERYGDRVKGWITINEPWVNCVAGYKNGPGKAPYRCTGEAPRKLANDTTGLDLEGGCSYEIGPSQYTKDSEVLPANRPPQKLEDVWCSHNILLGHAQAVKVYREKFQKEQKGLIGITIDGEAQIPWEEPGMSEEEYENNKKYANLAAEFRIGWYSDPVMFGDYPESVKQRNGKDMPVFTDEEKKLLKGSSSDFLGWNTYTSHWAAQVKNEDGSYVEPPTDEEASYDNSKRDMWDDNCKGRGDGWTCIPPTLGSQAGSSWNTKYGPTIRVGLNWFSKRYEGIIKNGIIITENGCAQPNYKVSRANDQVTLDYWKSIGKEEFADTYDEDIIEDESDLEGTLIHDTYRIDWYKQYLENLRLAYVEDGVDVRGYMAWSLVDNFEWENGYETRFGMTYIDFYNDKDLKRVPKDSLTFLGQWYLDNVEQE
Turning to B4, in the data set “purified protein”, the Km stood at 164 µM and the maximal velocity (Vmax) amounted to 5.41 µmol/min/mg.

B5: Cel6A (Pecoramyces ruminantium) (protein)
chain: PKSSGGSTTTPVNPGDVDATPGDQLTLSGNPFSGVEFYINPYYVAEVDGAIAQMTDSSLKAKAEKMKTYSNAIWLDTIKNMNSWLESNLKGALAQQTGSKKVLTVFVVYDLPGRDCHALASNGELLANSSDAQRYKTEYIDVIEKHLKTYKSQPVALIVEPDSLANLVTNLESTPACRDSESYYLDGHAYLIKKLGVLPHVAMYLDIGHAFWLGWDDNREKAGKVYAKVIQSGSPGKVRGFTDNVSNYTPWEDPTLSRGPDTEWNPCPDEKRYLEAMHKDFKAAGISSVYFVSDTSRNGHKTDRKHPGEWCNQTGVGIGARPQASPISGMDYLDAFYWIKPLGESDGTSDESAVRFDGYCGHETAMKPAPEAGQWFQKHFEQGLENANPPL
notes: whole CDS (nt 2-1177 of transcript; protein length 391) cloned; codon-optimised synthetic gene in pET28a(+) NdeI/XhoI, E. coli, purified
Regarding B5, in data set [1], the Km was 228 µM and the Vmax was found to be 3.27 µmol/min/mg.

B6: XYL11 (Pecoramyces ruminantium) (protein)
chain: GSGTSGTADFPYAKVYIGNQQNQPSYQPTTTRNNSQPTSPATGGSSGEICSASGHSGESTKVTSNKVGSINGIGYELWADSGNNSATFYSDGSFSCTFQNAKDYLCRSGLSFDSTKTHSQIGHLYADFKLVKQGISNVDYSYVGIYGWTRSPLVEFYIVDNWLSQYRPGDWVGNKKHGDFTIDGAQYTVYENTRTGPSIDGNTQFKQYFSIRKTARDCGTIDITAHFQQWEKLGMTMGKMHEAKVLGEAGSNGSGTSGTADFPYAKVYTGS
Take B6: in the data set “purified protein”, the Km was 216 µM and the maximum rate (Vmax) worked out at 0.28 µmol/min/mg.
